Data: the supplement of paper PMC11908140

B1: library; numbered along this chain (parent)
chain: MRKPRAAVGSGHRKQAASQEGRQKHAKNNSQAKPSACDGLARQPEEVVLQASVSSYHLFRDVAEVTAFRGSLLSWYDQEKRDLPWRRRAEDEMDLDRRAYAVWVSEVMLQQTQVATVINYYTGWMQKWPTLQDLASASLEEVNQLWAGLGYYSRGRRLQEGARKVVEELGGHMPRTAETLQQLLPGVGRYTAGAIASIAFGQATGVVDGNVARVLCRVRAIGADPSSTLVSQQLWGLAQQLVDPARPGDFNQAAMELGATVCTPQRPLCSQCPVESLCRARQRVEQEQLLASGSLSGSPDVEECAPNTGQCHLCLPPSEPWDQTLGVVNFPRKASRKPPREESSATCVLEQPGALGAQILLVQRPNSGLLAGLWEFPSVTWEPSEQLQRKALLQELQRWAGPLPATHLRHLGEVVHTFSHIKLTYQVYGLALEGQTPVTTVPPGARWLTQEEFHTAAVSTAMKKVFRVYQGQQPGTCMGSKRSQVSSPCSRKKPRMGQQVLDNFFRSHISTDAHSLNSAAQ

Variants of: B1
Assay: 8OG:A repair function score (normalized; synonymous = 0, nonsense = -1) (normalized log-likelihood score); higher = more repair activity (WT-like)
Conditions: with 8OG:A DNA repair reporter (GFP) in HEK-293 MUTYH KO cells
Outline: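 After 72 h, viable mCherry+ cells were split into GFP+ (repair) and GFP− bins in three replicates per tile. These cells were MUTYH knockout HEK-293 cells holding lentiviral MUTYH cDNA NNN codon-scan libraries, kept in 10 pg/ml doxycycline and co-transfected with mCherry plus an 8OG:A GFP repair reporter. Sequencing of tile amplicons gave per-tile Rosace fitness scores, normalized into a repair function score anchored on synonymous and nonsense distributions. Synonymous medians were fixed at 0, nonsense at -1, and variants under 300 counts per million at the start were removed.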
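Also: cells sorted at 72 h after reporter transfection.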

8OG:A repair function score: each site, then its substitutions
S518: Y 0.0286, R -0.0226, V -0.01, T 0.014, W -0.0247
Q521: I -0.0216, T -0.0167, F -0.0187, C 0.00296, Y 0.025, D -0.0822, E 0.00527, A 0.0136, P -0.0312, M 0.0277, N 0.00751, K -0.0417, L -0.0455, W 0.00491, V -0.0096, R -0.0139, S -0.00358, G -0.018, H 0.0162
A520: G 0.00375, R 0.027, Q 0.00885, E 0.0123, Y 0.0286, L -0.0269, S -0.0114, I -0.0239, H -0.0164, F 0.00424, K 0.00969, V -0.0172, M 0.0283, C -0.000175, D -0.0192, N 0.0153, T -0.000144, W -0.0228, P 0.0147
A519: G -0.00167, H -0.00545, D 0.0164, F 0.0212, Q 0.023, T -0.0144, K 0.0032, E 0.0285, C -0.00674, W 0.00269, L -0.012, S 0.00395, I -0.0243, M -0.00851, Y 0.0154, V -0.0127, R 0.013, N -0.00616, P 0.0175
